{"source": "paper PMC10300371", "about": "“Categorization of Escherichia coli outer membrane proteins by dependence on accessory proteins of the β-barrel assembly machinery complex” (The Journal of Biological Chemistry, 2023)", "proteins": {"B1": {"name": "LamB (natural protein, E. coli, UniProt P02943 26-446, looked up)", "chain": "VDFHGYARSGIGWTGSGGEQQCFQTTGAQSKYRLGNECETYAELKLGQEVWKEGDKSFYFDTNVAYSVAQQNDWEATDPAFREANVQGKNLIEWLPGSTIWAGKRFYQRHDVHMIDFYYWDISGPGAGLENIDVGFGKLSLAATRSSEAGGSSSFASNNIYDYTNETANDVFDVRLAQMEINPGGTLELGVDYGRANLRDNYRLVDGASKDGWLFTAEHTQSVLKGFNKFVVQYATDSMTSQGKGLSQGSGVAFDNEKFAYNINNNGHMLRILDHGAISMGDNWDMMYVGMYQDINWDNDNGTKWWTVGIRPMYKWTPIMSTVMEIGYDNVESQRTGDKNNQYKITLAQQWQAGDSIWSRPAIRVFATYAKWDEKWGYDYTGNADNNANFGKAVPADFNGGSFGRGDSDEWTFGAQMEIWW", "modifications": "35S-methionine and 35S-cysteine (radiolabel)", "notes": "Made as a monomer and seen as a trimer after assembly into EMM; also called 35S-labeled LamB; maltoporin; source: in vitro translated, rabbit reticulocyte lysate (Promega), 35S-labelled; assembled into EMM"}, "B2": {"name": "OmpF (natural protein, E. coli, UniProt P02931 23-362, looked up)", "chain": "AEIYNKDGNKVDLYGKAVGLHYFSKGNGENSYGGNGDMTYARLGFKGETQINSDLTGYGQWEYNFQGNNSEGADAQTGNKTRLAFAGLKYADVGSFDYGRNYGVVYDALGYTDMLPEFGGDTAYSDDFFVGRVGGVATYRNSNFFGLVDGLNFAVQYLGKNERDTARRSNGDGVGGSISYEYEGFGIVGAYGAADRTNLQEAQPLGNGKKAEQWATGLKYDANNIYLAANYGETRNATPITNKFTNTSGFANKTQDVLLVAQYQFDFGLRPSIAYTKSKAKDVEGIGDVDLVNYFEVGATYYFNKNMSTYVDYIINQIDSDNKLGVGSDDTVAVGIVYQF", "modifications": "35S-methionine and 35S-cysteine (radiolabel)", "notes": "Made as a monomer and seen as a trimer after assembly into EMM; also called 35S-labeled OmpF; major porin; source: in vitro translated, rabbit reticulocyte lysate (Promega), 35S-labelled; assembled into EMM"}, "B3": {"name": "OmpC (natural protein, E. coli, UniProt P06996 22-367, looked up)", "chain": "AEVYNKDGNKLDLYGKVDGLHYFSDNKDVDGDQTYMRLGFKGETQVTDQLTGYGQWEYQIQGNSAENENNSWTRVAFAGLKFQDVGSFDYGRNYGVVYDVTSWTDVLPEFGGDTYGSDNFMQQRGNGFATYRNTDFFGLVDGLNFAVQYQGKNGNPSGEGFTSGVTNNGRDALRQNGDGVGGSITYDYEGFGIGGAISSSKRTDAQNTAAYIGNGDRAETYTGGLKYDANNIYLAAQYTQTYNATRVGSLGWANKAQNFEAVAQYQFDFGLRPSLAYLQSKGKNLGRGYDDEDILKYVDVGATYYFNKNMSTYVDYKINLLDDNQFTRDAGINTDNIVALGLVYQF", "modifications": "35S-methionine and 35S-cysteine (radiolabel)", "notes": "Made as a monomer and seen as a trimer after assembly into EMM; also called 35S-labeled OmpC; major porin; source: in vitro translated, rabbit reticulocyte lysate (Promega), 35S-labelled; assembled into EMM"}}}
{"biological_target": "the molecule itself", "assay": "native gel or EMSA; 35S-labelled protein incubated with EMM at 30 °C for 10 to 90 min, EMM solubilised in 1.5% DDM, BN-PAGE and radioimaging; monomer to trimer"}
{"protein": "B1", "stoichiometry N": 3}
{"protein": "B2", "stoichiometry N": 3}
{"protein": "B3", "stoichiometry N": 3}
